From publication PMC10532679 (Life, 2023)

Columns and labels:
[1] = target: T1, wild-type H6-PKA-Cα, untreated (alpha isoform of the catalytic subunit of cAMP-dependent protein kinase) (murine, UniProt P05132 2-351); experiment: SPR; OpenSPR-XT; CREBtide coupled (EDC/sulfo-NHS) to a carboxyl sensor, surface blocked with monomeric streptavidin and ethanolamine; PKA-Cα 0.078–10 µM flowed at 20 µL/min; 1X HBS-P+, 10 mM MgCl2, 0.01% NP-40, 0.5% BSA, 10 µM AMP-PNP, pH 7.4; equilibrium analysis; apparent; conditions: both partners purified
[2] = target: T1, wild-type H6-PKA-Cα, untreated (alpha …); experiment: SPR; OpenSPR-XT; CREBtide coupled to a carboxyl sensor; PKA-Cα flowed at 75 µL/min; 1X HBS-P+, 10 mM MgCl2, 0.01% NP-40, 0.5% BSA, 10 µM AMP-PNP, pH 7.4; kinetics analysis; apparent; conditions: both partners purified

Kd [1]: 3.3 ± 1 µM
Kd [2]: 2.8 ± 0.75 µM
B1: CREBtide (peptide)
peptide: KRREILSRRPSYR
notes: Coupled by EDC/sulfo-NHS to the carboxyl sensor in SPR; source: bought: Alfa Aesar
